According to publication PMC4175280, “Characterization of proanthocyanidin metabolism in pea (Pisum sativum) seeds” (BMC Plant Biology, 2014):

Legend:
PsLAR = biological target: T1, PsLAR (Lathyrus oleraceus, UniProt A0A076G360); experiment: coupled PsDFR/PsLAR assay, LC-MS of product; format: biochemical; conditions: NADPH, pH 6, 40°C
T1 construct: gene LAR
T1 sequence (A0A076G360 1-351): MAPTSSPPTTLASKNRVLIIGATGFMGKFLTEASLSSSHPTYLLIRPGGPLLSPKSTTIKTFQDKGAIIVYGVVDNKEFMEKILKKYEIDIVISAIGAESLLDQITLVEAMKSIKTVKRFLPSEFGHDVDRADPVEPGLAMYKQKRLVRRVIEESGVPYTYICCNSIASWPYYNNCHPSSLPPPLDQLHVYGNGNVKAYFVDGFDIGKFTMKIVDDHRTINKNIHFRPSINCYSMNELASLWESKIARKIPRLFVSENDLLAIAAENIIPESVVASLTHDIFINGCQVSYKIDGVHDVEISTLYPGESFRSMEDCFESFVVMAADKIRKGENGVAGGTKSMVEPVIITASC

[1] = substrate: Oc1ccc(-c2[o+]c3cc(O)cc(O)c3cc2O)cc1; experiment: HPLC-DAD of cis-flavan-3-ol product, Michaelis-Menten; format: biochemical, Lathyrus oleraceus; conditions: 20 mM NADPH, 100 mM Tris-HCl pH 7, 42°C, 20 min
Source text: (§1) HPLC-DAD of cis-flavan-3-ol product, Michaelis-Menten on PsANR

[2] = substrate: Oc1cc(O)c2cc(O)c(-c3ccc(O)c(O)c3)[o+]c2c1; experiment: as above; format: biochemical, Lathyrus oleraceus; conditions: 20 mM NADPH, 100 mM Tris-HCl pH 7, 42°C, 20 min
Source text: as §1

[3] = substrate: Oc1cc(O)c2cc(O)c(-c3cc(O)c(O)c(O)c3)[o+]c2c1; experiment: as above; format: biochemical, Lathyrus oleraceus; conditions: 20 mM NADPH, 100 mM Tris-HCl pH 7, 42°C, 20 min
Source text: as §1

## Oc1cc(O)c2c(c1)O[C@H](c1cc(O)c(O)c(O)c1)[C@@H](O)C2 [gallocatechin]
PsLAR; substrate made in situ from dihydromyricetin by PsDFR
  coupled PsDFR/PsLAR assay, LC-MS of product: co-incubation of PsDFR and PsLAR could synthesize compounds displaying [M + H]^+ ion for CT

## Oc1cc(O)c2c(c1)O[C@H](c1ccc(O)c(O)c1)[C@@H](O)C2 [(+)-catechin]
PsLAR; substrate made in situ from dihydroquercetin by PsDFR
  coupled PsDFR/PsLAR assay, LC-MS of product: Only co-incubation of PsDFR and PsLAR could synthesize compounds displaying [M + H]^+ ion for CT

B1: PsANR (Lathyrus oleraceus) (protein)
chain: MASIKEVGKKKACVIGGTGFVASILIKQLLEKGYAVNTTVRDLDNPKKISHLVALKSLGELNLFKAELTVDGDFDAPIAGCELVFQLATPVNFASQDPENDMIKPAIKGVLNVLKACAKAKEVKRVILTSSAAAVTINELKGEDHVMDETNWSDVEFLNAAKPPTWGYPASKVLAEKAAWEFAEKNDIDLITVIPTLTMGPYLTQDMPSSVGLAMSLITGNDFLVNALKGMQFLSGSISITHVEDICRAHIFVAEKESASGRYICCAQNTCVPELAKFFSKRYPQYKVPTKFEDCPSKAKLIIFFEKLIKEGFGFKYGIGETYAQTIEYLKIKGVLKK
[1]
  Km: 39.0 ± 0.1 µM
  kcat/Km: 30.7 M⁻¹ s⁻¹
[2]
  Km: 37.0 ± 0.2 µM
  kcat/Km: 13.5 M⁻¹ s⁻¹
[3]
  Km: 183.6 ± 0.2 µM
  kcat/Km: 4.3 M⁻¹ s⁻¹
